According to paper PMC9407465:

What was measured:
[1] = IP and acetylation immunoblot
[2] = luciferase reporters; conditions: glycan lost
[3] = Gli2 level in primary GNPs; conditions: glycan lost; control: untreated GNPs
[4] = Bcl2 promoter luciferase, HEK293T; conditions: WT Gli2
[5] = IP immunoblot from P30 cerebellum; conditions: glycan lost; control: SmoM2Atoh1 mice
[6] = GLI2 level in Daoy cells; conditions: glycan lost; control: DMSO

B1: Gli2 (GLI family zinc finger 2): S355A (protein)
parent chain: METSAPAPALEKKEAKSGLLEDSSFPDPGKKACPLAVAAAVAAHGVPQQLLPAFHAPLPIDMRHQEGRYHYDPHSVHSVHGPPTLSGSPVISDISLIRLSPHPAGPGESPFSAHHPYVNPHMEHYLRSVHSSPTLSMISAARGLSPADVAHEHLKERGLFSLAAPGTNPSDYYHQMTLMASHPTPYGDLLMQSGGAASAPHLHDYLNPVDASRFSSPRVTPRLSRKRALSISPLSDASLDLQRMIRTSPNSLVAYINNSRSSSAASGSYGHLSAGALSPAFTFPHPINPVAYQQILSQQRGLGSAFGHTPPLIQPSPTFLAQQPMTLTSISTMPTQLSSSSSNCLNDANQNKQNSESAVSSTVNPITIHKRSKVKTEAEGLRPASPLGLTQEQLADLKEDLDRDDCKQEAEVVIYETNCHWADCTKEYDTQEQLVHHINNEHIHGEKKEFVCRWQACTREQKPFKAQYMLVVHMRRHTGEKPHKCTFEGCSKAYSRLENLKTHLRSHTGEKPYVCEHEGCNKAFSNASDRAKHQNRTHSNEKPYICKIPGCTKRYTDPSSLRKHVKTVHGPDAHVTKKQRNDVHVRAPLLKENGDNEASAEPGGRGPEESVEASSTSHTVEDCLHIKAIKTESSGLCQSSPGAQSSCSSEPSPLGSAPNNDSGMEMPGTGPGSLGDLTALADTCPGADTSALAAPSTGGLQLRKHMSTVHRFEQLKREKLKSLKDSCSWAGPAPHTRNTKLPPLPVNGSVLENFNNTGGGGPAGLLPSQRLPELTEVTMLSQLQERRDSSTSTMSSAYTVSRRSSGISPYFSSRRSSEASPLGGLRPHNASSADSYDPISTDASRRSSEASQCSGGGPGLLNLTPAQQYNLRAKYAAATGGPPPTPLPGLDRVSLRTRLALLDAPERALPGACPHPLGPRRGSDGPTYSHGHGHGYAGAAPAFPHEGPNSSTRRASDPVRRPDPLILPRVQRFHSTHNMNPGSLPPCADRRGLHVQSHPSVDSNLTRNAYSPRPPSINENVVMEAVAAGVDGPGLECDLGLVEDELVLPDDVVQYIKAHTGGTLDDGIRQGYPTEGTGFPENSKLPSPGLQGHRRLAAADSNMGPSAPGLGGCQLSYSPSSNLNKSNMPVQWNEVSSGTVDALPTQVKPPPFPHSNLAVVQQKPAFGQYPGYNPQSVQSSSGGLDSTQPHLQLRGAPSASRGSYTQQPRQPAAGSQCLGMSAAMSPQASYSQAHPQLSPNIVSGSLNQFSPSCSNMAAKPSHLGLPQQMEVVPNATIMNGHQREHGVPNSSLAAVSQPHPVLSYPQQDSYQQGSNLLSSHQPGFMESQQNAGFGLMQPRPPLEPNTASRHRGVRSGQQQLYARTTGQAMVTSANQETAEAMPKGPAGTMVSLAPQPSQDTGRAQDQNTLYYYGQIHMYEQNGGCPAVQPQPPQPQACSDSIQPEPLPSPGVNQVSSTVDSQLLEPPQIDFDAIMDDGDHSSLFSGALSPTLLHNLSQNSSRLTTPRNSLTLPSIPAGISNMAVGDMSSMLTSLAEESKFLNMMT
[1]; glycan lost, control: wild type Gli2
  other: Gli2 acetylation: increases
[2]; control: wild type Gli2
  other: transcriptional activity: decreases

B2: Gli2 (GLI family zinc finger 2): OSMI-1 (protein)
parent chain: B1 parent chain
[3]
  expression_or_secretion: decreases
[1]; glycan lost, control: untreated, WT Gli2
  other: Gli2 acetylation: increases
[4]; glycan lost, control: DMSO
  other: transcriptional activity: decreases

B3: Gli2 (GLI family zinc finger 2): OGT overexpression (protein)
parent chain: B1 parent chain
[1]; glycan gained, control: without OGT overexpression
  other: Gli2 acetylation: decreases
[4]; glycan gained, control: pEGFP-C1 vector
  other: transcriptional activity: increases

B4: Gli2 (GLI family zinc finger 2): SmoM2Atoh1;OGTAtoh1 (OGT knockout in GNPs) (protein)
parent chain: B1 parent chain
[5]
  other: Gli2 acetylation: increases

B5: human GLI2: S358A (protein)
parent chain: METSASATASEKQEAKSGILEAAGFPDPGKKASPLVVAAAAAAAVAAQGVPQHLLPPFHAPLPIDMRHQEGRYHYEPHSVHGVHGPPALSGSPVISDISLIRLSPHPAGPGESPFNAPHPYVNPHMEHYLRSVHSSPTLSMISAARGLSPADVAQEHLKERGLFGLPAPGTTPSDYYHQMTLVAGHPAPYGDLLMQSGGAASAPHLHDYLNPVDVSRFSSPRVTPRLSRKRALSISPLSDASLDLQRMIRTSPNSLVAYINNSRSSSAASGSYGHLSAGALSPAFTFPHPINPVAYQQILSQQRGLGSAFGHTPPLIQPSPTFLAQQPMALTSINATPTQLSSSSNCLSDTNQNKQSSESAVSSTVNPVAIHKRSKVKTEPEGLRPASPLALTQGQVSGHGSCGCALPLSQEQLADLKEDLDRDDCKQEAEVVIYETNCHWEDCTKEYDTQEQLVHHINNEHIHGEKKEFVCRWQACTREQKPFKAQYMLVVHMRRHTGEKPHKCTFEGCSKAYSRLENLKTHLRSHTGEKPYVCEHEGCNKAFSNASDRAKHQNRTHSNEKPYICKIPGCTKRYTDPSSLRKHVKTVHGPDAHVTKKQRNDVHLRTPLLKENGDSEAGTEPGGPESTEASSTSQAVEDCLHVRAIKTESSGLCQSSPGAQSSCSSEPSPLGSAPNNDSGVEMPGTGPGSLGDLTALDDTPPGADTSALAAPSAGGLQLRKHMTTMHRFEQLKKEKLKSLKDSCSWAGPTPHTRNTKLPPLPGSGSILENFSGSGGGGPAGLLPNPRLSELSASEVTMLSQLQERRDSSTSTVSSAYTVSRRSSGISPYFSSRRSSEASPLGAGRPHNASSADSYDPISTDASRRSSEASQCSGGSGLLNLTPAQQYSLRAKYAAATGGPPPTPLPGLERMSLRTRLALLDAPERTLPAGCPRPLGPRRGSDGPTYGHGHAGAAPAFPHEAPGGGARRASDPVRRPDALSLPRVQRFHSTHNVNPGPLPPCADRRGLRLQSHPSTDGGLARGAYSPRPPSISENVAMEAVAAGVDGAGPEADLGLPEDDLVLPDDVVQYIKAHASGALDEGTGQVYPTESTGFSDNPRLPSPGLHGQRRMVAADSNVGPSAPMLGGCQLGFGAPSSLNKNNMPVQWNEVSSGTVDALASQVKPPPFPQGNLAVVQQKPAFGQYPGYSPQGLQASPGGLDSTQPHLQPRSGAPSQGIPRVNYMQQLRQPVAGSQCPGMTTTMSPHACYGQVHPQLSPSTISGALNQFPQSCSNMPAKPGHLGHPQQTEVAPDPTTMGNRHRELGVPDSALAGVPPPHPVQSYPQQSHHLAASMSQEGYHQVPSLLPARQPGFMEPQTGPMGVATAGFGLVQPRPPLEPSPTGRHRGVRAVQQQLAYARATGHAMAAMPSSQETAEAVPKGAMGNMGSVPPQPPPQDAGGAPDHSMLYYYGQIHMYEQDGGLENLGSCQVMRSQPPQPQACQDSIQPQPLPSPGVNQVSSTVDSQLLEAPQIDFDAIMDDGDHSSLFSGALSPSLLHSLSQNSSRLTTPRNSLTLPSIPAGISNMAVGDMSSMLTSLAEESKFLNMMT
[2]; control: wild type GLI2
  other: transcriptional activity: decreases

B6: human GLI2: S358D (protein)
parent chain: B5 parent chain
[2]; control: wild type GLI2
  other: transcriptional activity: decreases

B7: human GLI2: OSMI-1 (protein)
parent chain: B5 parent chain
[6]
  expression_or_secretion: decreases

B8: Gli2 (GLI family zinc finger 2): S355D (protein)
parent chain: B1 parent chain
[2]; control: wild type Gli2
  other: transcriptional activity: decreases
